According to US20200405868A1 (ADEPTHERA, published 2020):
Where no end group is shown, it is not given here. The star is where a group is joined. Palmitoyl = CCCCCCCCCCCCCCCC(=O)*

Columns and labels:
[1] = molecular target: T1, PTH receptor 1 (PTHR1) (UniProt Q03431 27-593, limits assumed); assay: cell-based or functional assay
T1 sequence (looked up): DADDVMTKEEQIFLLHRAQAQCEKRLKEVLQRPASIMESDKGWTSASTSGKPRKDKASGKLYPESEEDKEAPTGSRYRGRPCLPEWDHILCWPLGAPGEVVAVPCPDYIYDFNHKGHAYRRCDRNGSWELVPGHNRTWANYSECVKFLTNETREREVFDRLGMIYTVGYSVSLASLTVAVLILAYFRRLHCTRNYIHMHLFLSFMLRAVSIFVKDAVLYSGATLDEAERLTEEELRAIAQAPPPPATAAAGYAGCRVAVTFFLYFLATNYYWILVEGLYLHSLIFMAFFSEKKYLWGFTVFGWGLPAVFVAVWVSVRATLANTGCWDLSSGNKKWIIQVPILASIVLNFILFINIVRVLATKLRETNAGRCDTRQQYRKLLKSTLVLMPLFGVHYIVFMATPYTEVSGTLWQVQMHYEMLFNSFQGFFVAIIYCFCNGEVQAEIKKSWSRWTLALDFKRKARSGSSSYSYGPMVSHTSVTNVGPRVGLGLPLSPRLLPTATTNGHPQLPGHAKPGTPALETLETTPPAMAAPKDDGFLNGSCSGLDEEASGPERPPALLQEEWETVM

[2] = molecular target: melanocortin receptor 1 (MC1R) (UniProt Q01726 1-317, limits assumed); assay: cell-based or functional assay
melanocortin receptor 1 (MC1R), sequence (Q01726 whole entry): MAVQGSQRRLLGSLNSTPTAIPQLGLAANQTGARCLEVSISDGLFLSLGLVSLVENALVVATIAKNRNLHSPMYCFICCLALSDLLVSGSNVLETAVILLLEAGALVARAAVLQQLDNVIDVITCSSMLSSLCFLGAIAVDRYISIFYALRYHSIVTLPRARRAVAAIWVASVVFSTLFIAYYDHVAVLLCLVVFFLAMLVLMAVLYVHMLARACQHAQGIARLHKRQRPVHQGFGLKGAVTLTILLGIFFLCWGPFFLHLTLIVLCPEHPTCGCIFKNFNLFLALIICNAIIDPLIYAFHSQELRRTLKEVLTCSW

## Palmitoyl-HSYSEIQLMHNLGKHLNSMERVEWLRKKLQDVHNF [SEQ ID NO: 232, Pal-HSYSEIQLMHNLGKHLNSMERVEWLRKKLQDVHNF, gel-forming PTH analog]
[1]
  EC50 (nM), PTHR1 cAMP agonistic assay: 14.1 nM

## Palmitoyl-HSYSMEHFRWGKPVGKKRRPVKVYP [SEQ ID NO: 226, Pal-HSYSMEHFRWGKPVGKKRRPVKVYP, conjugated gel-forming ACTH1-24 analog]
[2]
  EC50 (nM), MC1R cAMP agonistic assay: 0.14 nM
